Data: paper PMC5856423, “Structural basis for recognition of the central conserved region of RSV G by neutralizing human antibodies” (PLoS Pathogens, 2018)

T1: 32-residue peptide encompassing RSV G Phe165-Lys196, subtype B (Human respiratory syncytial virus …, UniProt O36633, strain)
T1 construct: attachment glycoprotein G of human RSV subtype B, residues Phe165-Lys196; The tested set is a series of alanine mutants of this peptide; source: covalently linked peptides on Pepscan cards
T1 chain: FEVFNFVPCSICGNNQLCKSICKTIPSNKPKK

T2: 45-residue synthetic peptide encompassing the subtype A RSV G central conserved region (G peptide) (Human respiratory syncytial virus A …, not fully specified; N-terminal biotin coupling as the last step in synthesis; disulfide bonds of the cystine noose formed by oxidative folding)
T2 construct: attachment glycoprotein G of human RSV subtype A, central conserved region, residues Asn153-Lys197 (45 residues); also called RSV G peptide; subtype A RSV G peptide; source: synthetic peptide (Fmoc solid phase, HPLC), oxidatively folded
T2 chain: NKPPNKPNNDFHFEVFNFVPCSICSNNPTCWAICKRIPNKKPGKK

B1: CB017.5 IgG (antibody, V domains shown)
VH: QVQLVESGGGVVQPGRSLRLSCSASGFTFSVYAMHWVRQAPGQGLEWVAIIWYDGSNKYYADSVKGRFTISRDNSKETLYLQMNSLRVEDTAVYYCARDPIVGHTRDGLDVWGQGTTVTVSS
VL: SYELTQPPSVSVSPGQTARVTCSGDAMAEQYTYWYQQKPGQAPVLIIFKDTERPSGIPERFSGSSSGTTVTLTISGVQTEDEADYYCQSTDSSGTSWVFGGGTKLTVL
notes: as the light chain of m2 (PDB 6BLH); full-length IgG1; also called antibody CB017.5; source: FreeStyle 293-F or PER.C6 cells, transfected, purified (Protein A)
B2: Fab CB017.5 (Fab, V domains shown)
VH: QVQLVESGGGVVQPGRSLRLSCSASGFTFSVYAMHWVRQAPGQGLEWVAIIWYDGSNKYYADSVKGRFTISRDNSKETLYLQMNSLRVEDTAVYYCARDPIVGHTRDGLDVWGQGTTVTVSS
VL: SYELTQPPSVSVSPGQTARVTCSGDAMAEQYTYWYQQKPGQAPVLIIFKDTERPSGIPERFSGSSSGTTVTLTISGVQTEDEADYYCQSTDSSGTSWVFGGGTKLTVL
notes: human; Fab cut with papain from full-length IgG1; source: IgG from FreeStyle 293-F or PER.C6 cells, transfected, Protein A; Fab by papain digestion, purified (Protein A flow-through, SEC)
B3: CB002.5 IgG (antibody, V domains shown)
VH: QVQLQESGPRLVKPSETLSLTCTVSGGSTSSYFWNWIRQPPGKGLEWIGYIYGSGSADYNPSLKSRVTISIDTSKTQFSLKLTSVTAADTAVYYCARSGFCSDDACYRRGSWFDPWGQGTLVTVSS
VL: DIQMTQSPSSLSASVGDRVTITCRASQSIDNYLNWYQQKPGKAPKLLIYAASGLQSGVPSRFSGSGSGTEFTLTVSSLHPEDFATYYCQQSYSTLTWTFGQGTKVEIK
B4: Fab CB002.5 (Fab, V domains shown)
VH: QVQLQESGPRLVKPSETLSLTCTVSGGSTSSYFWNWIRQPPGKGLEWIGYIYGSGSADYNPSLKSRVTISIDTSKTQFSLKLTSVTAADTAVYYCARSGFCSDDACYRRGSWFDPWGQGTLVTVSS
VL: DIQMTQSPSSLSASVGDRVTITCRASQSIDNYLNWYQQKPGKAPKLLIYAASGLQSGVPSRFSGSGSGTEFTLTVSSLHPEDFATYYCQQSYSTLTWTFGQGTKVEIK
notes: as for B2

Legend:
[1] = molecular target: secreted form of RSV G from strain A2 (sG) (human respiratory syncytial virus strain A2)
[2] = molecular target: T1, 32-residue peptide encompassing RSV G …; test: peptide or protein array; Pepscan-based ELISA: peptides covalently linked in the wells of cards, mAb at 1-10 ng/mL overnight at 4°C in PBS with horse serum, OVA and Tween 80; HRP-linked anti-human IgG, ABTS; conditions: both partners purified
[3] = molecular target: T2, 45-residue synthetic peptide …; test: SPR; G peptide (or its reduced and alkylated form) immobilised on a CM5 chip by primary-amine coupling (25 RU), Biacore X100; Fab in serial 2-fold dilutions in HBS-P+ (CB002.5 25 nM-98 pM, CB017.5 100 nM-195 pM; on the reduced and alkylated peptide CB002.5 1,000-1.95 nM, CB017.5 62.5-1.95 nM); 1:1 binding model; conditions: both partners purified
[4] = molecular target: T3, secreted form of RSV G from strain A2 (sG) (Human respiratory syncytial virus A, …, UniProt P03423, strain); test: SPR; sG captured by its C-terminal 8xHis tag on an NTA sensor chip (60-150 RU), Biacore X100; Fab in serial 3-fold dilutions from 300 nM to 46.5 pM in HBS-P+; double-reference subtracted, 1:1 binding model; conditions: both partners purified
T3 construct: attachment glycoprotein G of human respiratory syncytial virus strain A2, secreted form (sG); also called RSV sG; wild-type RSV sG from strain A2; source: FreeStyle 293-F, transfected, purified from supernatant (Strep-Tactin, SEC); not shown: 8xHis, C-terminal, kept

[5] = molecular target: reduced and alkylated form of the G peptide (human respiratory syncytial virus subtype A) (UniProt P03423); test: SPR; G peptide (or its reduced and alkylated form) immobilised on a CM5 chip by primary-amine coupling (25 RU), Biacore X100; Fab in serial 2-fold dilutions in HBS-P+ (CB002.5 25 nM-98 pM, CB017.5 100 nM-195 pM; on the reduced and alkylated peptide CB002.5 1,000-1.95 nM, CB017.5 62.5-1.95 nM); 1:1 binding model

Binder | IC50 of neutralization of RSV (rgRSV224) infection of primary HBECs at an air-liquid interface, in the absence of complement; pair that is blocked: RSV G and CX3CR1 [1] | binding result [2] | Kd [3] | Kd [4] | Kd [5]
B1 | 45.4 nM | binds | – | – | –
B2 | – | – | 4.1 nM | 2.4 nM | 27 nM
B3 | 4.7 nM | – | – | – | –
B4 | – | – | 0.52 nM | 3.3 nM | 18000 nM
